# Source: US20250361268A1, “NOVEL ANTI-INFLAMMATORY PEPTIDE AND USE THEREOF” (NOVACELL TECHNOLOGY INC., priority 2022, published 2025)
# T1: FPR1 (UniProt P21462 1-350, limits assumed)
# T1 sequence (looked up): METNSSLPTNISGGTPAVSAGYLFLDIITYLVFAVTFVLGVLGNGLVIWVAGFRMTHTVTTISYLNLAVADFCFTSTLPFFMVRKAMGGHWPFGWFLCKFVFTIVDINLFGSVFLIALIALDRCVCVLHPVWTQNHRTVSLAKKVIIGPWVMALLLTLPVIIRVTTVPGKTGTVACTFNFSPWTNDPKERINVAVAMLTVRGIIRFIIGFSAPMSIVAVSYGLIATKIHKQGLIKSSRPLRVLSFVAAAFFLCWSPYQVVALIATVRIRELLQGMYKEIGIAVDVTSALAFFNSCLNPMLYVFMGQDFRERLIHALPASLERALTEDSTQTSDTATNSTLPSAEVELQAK
# T2: formyl peptide receptor 2 (FPR2) (UniProt P25090 1-351, limits assumed)
# T2 sequence (looked up): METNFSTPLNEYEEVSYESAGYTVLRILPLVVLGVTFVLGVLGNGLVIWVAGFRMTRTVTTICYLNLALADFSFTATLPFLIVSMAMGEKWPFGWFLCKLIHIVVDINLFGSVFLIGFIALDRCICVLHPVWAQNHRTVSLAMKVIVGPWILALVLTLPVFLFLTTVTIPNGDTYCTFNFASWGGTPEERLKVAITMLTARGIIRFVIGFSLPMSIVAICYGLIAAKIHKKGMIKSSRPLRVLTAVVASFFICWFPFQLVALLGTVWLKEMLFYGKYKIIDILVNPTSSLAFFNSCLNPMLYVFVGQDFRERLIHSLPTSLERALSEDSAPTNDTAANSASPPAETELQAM
# B1: peptide of SEQ ID NO 157 (peptide)
# peptide: RWRYTYM
# HELM: PEPTIDE1{R.W.R.Y.T.Y.[dM].[am]}$$$$V2.0; N-terminus assumed
# SMILES: CSCC[C@@H](NC(=O)[C@H](Cc1ccc(O)cc1)NC(=O)[C@@H](NC(=O)[C@H](Cc1ccc(O)cc1)NC(=O)[C@H](CCCNC(=N)N)NC(=O)[C@H](Cc1c[nH]c2ccccc12)NC(=O)[C@@H](N)CCCNC(=N)N)[C@@H](C)O)C(N)=O
# B2: peptide of SEQ ID NO 141 (peptide)
# peptide: PKYKVM
# HELM: PEPTIDE1{[CCCCCCCC(=O)[*:2]].P.K.Y.K.V.[dM].[am]}$$$$V2.0
# SMILES: CCCCCCCC(=O)N1CCC[C@H]1C(=O)N[C@@H](CCCCN)C(=O)N[C@@H](Cc1ccc(O)cc1)C(=O)N[C@@H](CCCCN)C(=O)N[C@H](C(=O)N[C@H](CCSC)C(N)=O)C(C)C
# B3: peptide of SEQ ID NO 148 (peptide)
# peptide: HKYKPM
# HELM: PEPTIDE1{[CCCC(=O)[*:2]].H.K.Y.K.P.[dM].[am]}$$$$V2.0
# SMILES: CCCC(=O)N[C@@H](Cc1c[nH]cn1)C(=O)N[C@@H](CCCCN)C(=O)N[C@@H](Cc1ccc(O)cc1)C(=O)N[C@@H](CCCCN)C(=O)N1CCC[C@H]1C(=O)N[C@H](CCSC)C(N)=O
# B4: peptide of SEQ ID NO 156 (peptide)
# peptide: RWRYFYM
# HELM: PEPTIDE1{R.W.R.Y.F.Y.[dM].[am]}$$$$V2.0; N-terminus assumed
# SMILES: CSCC[C@@H](NC(=O)[C@H](Cc1ccc(O)cc1)NC(=O)[C@H](Cc1ccccc1)NC(=O)[C@H](Cc1ccc(O)cc1)NC(=O)[C@H](CCCNC(=N)N)NC(=O)[C@H](Cc1c[nH]c2ccccc12)NC(=O)[C@@H](N)CCCNC(=N)N)C(N)=O
# B5: peptide of SEQ ID NO 17 (peptide)
# peptide: MKYKVM
# HELM: PEPTIDE1{M.K.Y.K.V.[dM].[am]}$$$$V2.0; N-terminus assumed
# SMILES: CSCC[C@H](N)C(=O)N[C@@H](CCCCN)C(=O)N[C@@H](Cc1ccc(O)cc1)C(=O)N[C@@H](CCCCN)C(=O)N[C@H](C(=O)N[C@H](CCSC)C(N)=O)C(C)C
# B6: peptide of SEQ ID NO 142 (peptide)
# peptide: IKYKPM
# HELM: PEPTIDE1{I.K.Y.K.P.[dM].[am]}$$$$V2.0; N-terminus assumed
# SMILES: CC[C@H](C)[C@H](N)C(=O)N[C@@H](CCCCN)C(=O)N[C@@H](Cc1ccc(O)cc1)C(=O)N[C@@H](CCCCN)C(=O)N1CCC[C@H]1C(=O)N[C@H](CCSC)C(N)=O
# B7: peptide of SEQ ID NO 19 (peptide)
# peptide: MKYKVM
# HELM: PEPTIDE1{[CCCC(=O)[*:2]].M.K.Y.K.V.[dM].[am]}$$$$V2.0
# SMILES: CCCC(=O)N[C@@H](CCSC)C(=O)N[C@@H](CCCCN)C(=O)N[C@@H](Cc1ccc(O)cc1)C(=O)N[C@@H](CCCCN)C(=O)N[C@H](C(=O)N[C@H](CCSC)C(N)=O)C(C)C
# B8: peptide of SEQ ID NO 140 (peptide)
# peptide: PKYKVM
# HELM: PEPTIDE1{[CCCC(=O)[*:2]].P.K.Y.K.V.[dM].[am]}$$$$V2.0
# SMILES: CCCC(=O)N1CCC[C@H]1C(=O)N[C@@H](CCCCN)C(=O)N[C@@H](Cc1ccc(O)cc1)C(=O)N[C@@H](CCCCN)C(=O)N[C@H](C(=O)N[C@H](CCSC)C(N)=O)C(C)C
# B9: peptide of SEQ ID NO 149 (peptide)
# peptide: HKYKPM
# HELM: PEPTIDE1{[CCCCCCCC(=O)[*:2]].H.K.Y.K.P.[dM].[am]}$$$$V2.0
# SMILES: CCCCCCCC(=O)N[C@@H](Cc1c[nH]cn1)C(=O)N[C@@H](CCCCN)C(=O)N[C@@H](Cc1ccc(O)cc1)C(=O)N[C@@H](CCCCN)C(=O)N1CCC[C@H]1C(=O)N[C@H](CCSC)C(N)=O
# B10: peptide of SEQ ID NO 144 (peptide)
# peptide: IKYKPM
# HELM: PEPTIDE1{[CCCC(=O)[*:2]].I.K.Y.K.P.[dM].[am]}$$$$V2.0
# SMILES: CCCC(=O)N[C@H](C(=O)N[C@@H](CCCCN)C(=O)N[C@@H](Cc1ccc(O)cc1)C(=O)N[C@@H](CCCCN)C(=O)N1CCC[C@H]1C(=O)N[C@H](CCSC)C(N)=O)[C@@H](C)CC
# B11: peptide of SEQ ID NO 15 (peptide)
# peptide: MRYKVM
# HELM: PEPTIDE1{[CCCC(=O)[*:2]].M.R.Y.K.V.[dM].[am]}$$$$V2.0
# SMILES: CCCC(=O)N[C@@H](CCSC)C(=O)N[C@@H](CCCNC(=N)N)C(=O)N[C@@H](Cc1ccc(O)cc1)C(=O)N[C@@H](CCCCN)C(=O)N[C@H](C(=O)N[C@H](CCSC)C(N)=O)C(C)C
# B12: peptide of SEQ ID NO 18 (peptide)
# peptide: MKYKVM
# HELM: PEPTIDE1{[ac].M.K.Y.K.V.[dM].[am]}$$$$V2.0
# SMILES: CSCC[C@H](NC(C)=O)C(=O)N[C@@H](CCCCN)C(=O)N[C@@H](Cc1ccc(O)cc1)C(=O)N[C@@H](CCCCN)C(=O)N[C@H](C(=O)N[C@H](CCSC)C(N)=O)C(C)C
# B13: peptide of SEQ ID NO 139 (peptide)
# peptide: PKYKVM
# HELM: PEPTIDE1{[ac].P.K.Y.K.V.[dM].[am]}$$$$V2.0
# SMILES: CSCC[C@@H](NC(=O)[C@@H](NC(=O)[C@H](CCCCN)NC(=O)[C@H](Cc1ccc(O)cc1)NC(=O)[C@H](CCCCN)NC(=O)[C@@H]1CCCN1C(C)=O)C(C)C)C(N)=O
# B14: peptide of SEQ ID NO 147 (peptide)
# peptide: HKYKPM
# HELM: PEPTIDE1{[ac].H.K.Y.K.P.[dM].[am]}$$$$V2.0
# SMILES: CSCC[C@@H](NC(=O)[C@@H]1CCCN1C(=O)[C@H](CCCCN)NC(=O)[C@H](Cc1ccc(O)cc1)NC(=O)[C@H](CCCCN)NC(=O)[C@H](Cc1c[nH]cn1)NC(C)=O)C(N)=O
# B15: peptide of SEQ ID NO 146 (peptide)
# peptide: HKYKPM
# HELM: PEPTIDE1{H.K.Y.K.P.[dM].[am]}$$$$V2.0; N-terminus assumed
# SMILES: CSCC[C@@H](NC(=O)[C@@H]1CCCN1C(=O)[C@H](CCCCN)NC(=O)[C@H](Cc1ccc(O)cc1)NC(=O)[C@H](CCCCN)NC(=O)[C@@H](N)Cc1c[nH]cn1)C(N)=O
# B16: peptide of SEQ ID NO 154 (peptide)
# peptide: RWRYLYM
# HELM: PEPTIDE1{R.W.R.Y.L.Y.[dM].[am]}$$$$V2.0; N-terminus assumed
# SMILES: CSCC[C@@H](NC(=O)[C@H](Cc1ccc(O)cc1)NC(=O)[C@H](CC(C)C)NC(=O)[C@H](Cc1ccc(O)cc1)NC(=O)[C@H](CCCNC(=N)N)NC(=O)[C@H](Cc1c[nH]c2ccccc12)NC(=O)[C@@H](N)CCCNC(=N)N)C(N)=O
# B17: peptide of SEQ ID NO 143 (peptide)
# peptide: IKYKPM
# HELM: PEPTIDE1{[ac].I.K.Y.K.P.[dM].[am]}$$$$V2.0
# SMILES: CC[C@H](C)[C@H](NC(C)=O)C(=O)N[C@@H](CCCCN)C(=O)N[C@@H](Cc1ccc(O)cc1)C(=O)N[C@@H](CCCCN)C(=O)N1CCC[C@H]1C(=O)N[C@H](CCSC)C(N)=O
# B18: peptide of SEQ ID NO 138 (peptide)
# peptide: PKYKVM
# HELM: PEPTIDE1{P.K.Y.K.V.[dM].[am]}$$$$V2.0; N-terminus assumed
# SMILES: CSCC[C@@H](NC(=O)[C@@H](NC(=O)[C@H](CCCCN)NC(=O)[C@H](Cc1ccc(O)cc1)NC(=O)[C@H](CCCCN)NC(=O)[C@@H]1CCCN1)C(C)C)C(N)=O
# B19: peptide of SEQ ID NO 136 (peptide)
# peptide: IKYKVM
# HELM: PEPTIDE1{[CCCC(=O)[*:2]].I.K.Y.K.V.[dM].[am]}$$$$V2.0
# SMILES: CCCC(=O)N[C@H](C(=O)N[C@@H](CCCCN)C(=O)N[C@@H](Cc1ccc(O)cc1)C(=O)N[C@@H](CCCCN)C(=O)N[C@H](C(=O)N[C@H](CCSC)C(N)=O)C(C)C)[C@@H](C)CC
# Target: T1, FPR1
# Test: cell-based or functional assay
row,Binder,EC50 for [Ca2+] [µM]
1,B1,> 10
2,B2,> 10
3,B3,> 10
4,B4,> 10
5,B5,> 10
6,B6,> 10
7,B7,> 10
8,B8,> 10
9,B9,> 10
10,B10,> 10
11,B11,> 10
12,B12,> 10
13,B13,> 10
14,B14,> 10
15,B15,> 10
16,B16,> 10
17,B17,> 10
18,B18,> 10
19,B19,> 10

# Target: T2, formyl peptide receptor 2 (FPR2)
# Test: cell-based or functional assay
row,Binder,EC50 for [Ca2+] [µM]
1,B1,< 0.01
2,B2,< 0.01
3,B3,< 0.01
4,B4,< 0.01
5,B5,< 0.01
6,B6,< 0.01
7,B7,< 0.01
8,B8,< 0.01
9,B9,< 0.01
10,B10,< 0.01
11,B11,< 0.01
12,B12,< 0.01
13,B13,< 0.01
14,B14,< 0.01
15,B15,< 0.01
16,B16,< 0.01
17,B17,< 0.01
18,B18,< 0.01
19,B19,< 0.01
